Consider 7 substances from the supplement of paper PMC5998384.

The subject of data set [1] is HeLa Kyoto. Briefly: solubility in G1/S (NP-40 vs SDS abundance) (log2 ratio); higher = more soluble. To be noted: cell cycle stage: G1/S.
The subject of data set [2] is HeLa Kyoto. As to the kind of experiment: solubility change mitosis vs G1/S (difference of NP-40 vs SDS log2 ratios) (log2 ratio difference); higher = more soluble in mitosis.
Data set [3] relates to HeLa Kyoto. Briefly: melting temperature (median over replicates), in situ; higher = more thermally stable.
The test system of data set [4] is HeLa Kyoto. As to the kind of experiment: thermal stability score vs G1/S (z-score of summed log2 fold changes over temperatures); higher = more thermally stable than in G1/S.
[5] abbreviates: cell cycle stage: early G1 (4.5 h after nocodazole release).
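For melting temperature (median over replicates), in situ in this document: HeLa Kyoto cells synchronized by double thymidine or nocodazole block, proteins quantified by TMT10plex mass spectrometry, three independent biological replicates.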
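For solubility change mitosis vs G1/S (difference of NP-40 vs SDS log2 ratios) in this document: synchronized HeLa Kyoto cells (double thymidine block for G1/S, nocodazole release for mitosis), protein amounts in NP-40 versus SDS lysates quantified by mass spectrometry, three biological replicates.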
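For solubility in G1/S (NP-40 vs SDS abundance) in this document: HeLa Kyoto cells arrested at G1/S by double thymidine block, proteins quantified by TMT10plex mass spectrometry in mild NP-40 versus SDS extracts, three biological replicates.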
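For thermal stability score vs G1/S (z-score of summed log2 fold changes over temperatures) in this document: synchronized HeLa Kyoto cells, proteins quantified by TMT10plex mass spectrometry, three biological replicates, mitosis taken 0.5 h after nocodazole release, G1/S directly after double thymidine block.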

In the case of “MASQPPPPPKPWETRRIPGAGPGPGPGPTFQSADLGPTLMTRPGQPALTRVPPPILPRPSQQTGSSSVNTFRPAYSSFSSGYGAYGNSFYGGYSPYSYGYNGLGYNRLRVDDLPPSRFVQQAEESSRGAFQSIESIVHAFASVSMMMDATFSAVYNSFRAVLDVANHFSRLKIHFTKVFSAFALVRTIRYLYRRLQRMLGLRRGSENEDLWAESEGTVACLGAEDRAATSAKSWPIFLFFAVILGGPYLIWKLLSTHSDEVTDSINWASGEDDHVVARAEYDFAAVSEEEISFRAGDMLNLALKEQQPKVRGWLLASLDGQTTGLIPANYVKILGKRKGRKTVESSKVSKQQQSFTNPTLTKGATVADSLDEQEAAFESVFVETNKVPVAPDSIGKDGEKQDL [PEX13]”, in data set [1], the “solubility in G1/S (log2)” value was -0.182. Besides, the “solubility change mitosis (log2)” value in data set [2] came out at 0.116. The melting temperature in data set [3] (cell cycle stage: G1/S) was determined as 53.5 °C; in data set [3] (cell cycle stage: mitosis), 53.4 °C. For the same substance, the values for the thermal stability score in data set [4] (setting [5]) and in data set [4] (cell cycle stage: mitosis) were -2.51 and -2.78, respectively.

On to NFIA, for which the “solubility in G1/S (log2)” value in data set [1] is -0.00202. Moreover, the “solubility change mitosis (log2)” value in data set [2] is 0.0442. Also, the results for the melting temperature in data set [3] (cell cycle stage: G1/S) and in data set [3] (cell cycle stage: mitosis) were 59 °C and 62.1 °C, respectively. Besides, the thermal stability score in data set [4] (setting [5]) came to 0.325; in data set [4] (cell cycle stage: mitosis), 1.68.

With “MAAPRAGRGAGWSLRAWRALGGIRWGRRPRLTPDLRALLTSGTSDPRARVTYGTPSLWARLSVGVTEPRACLTSGTPGPRAQLTAVTPDTRTREASENSGTRSRAWLAVALGAGGAVLLLLWGGGRGPPAVLAAVPSPPPASPRSQYNFIADVVEKTAPAVVYIEILDRHPFLGREVPISNGSGFVVAADGLIVTNAHVVADRRRVRVRLLSGDTYEAVVTAVDPVADIATLRIQTKEPLPTLPLGRSADVRQGEFVVAMGSPFALQNTITSGIVSSAQRPARDLGLPQTNVEYIQTDAAIDFGNSGGPLVNLDGEVIGVNTMKVTAGISFAIPSDRLREFLHRGEKKNSSSGISGSQRRYIGVMMLTLSPSILAELQLREPSFPDVQHGVLIHKVILGSPAHRAGLRPGDVILAIGEQMVQNAEDVYEAVRTQSQLAVQIRRGRETLTLYVTPEVTE [HTRA2]”, in data set [1], the “solubility in G1/S (log2)” value came out at 0.168. For the same substance, the “solubility change mitosis (log2)” value in data set [2] turned out to be 0.028. For the same substance, the melting temperature worked out at 56.9 °C in data set [3] (cell cycle stage: G1/S) and 56.5 °C in data set [3] (cell cycle stage: mitosis). Further, the results for the thermal stability score in data set [4] (setting [5]) and in data set [4] (cell cycle stage: mitosis) were -2.4 and -3.14, respectively.

On to “MLRRILQRTPGRVGSQGSDLDSSATPINTVDVNNESSSEGFICPQCMKSLGSADELFKHYEAVHDAGNDSGHGGESNLALKRDDVTLLRQEVQDLQASLKEEKWYSEELKKELEKYQGLQQQEAKPDGLVTDSSAELQSLEQQLEEAQTENFNIKQMKDLFEQKAAQLATEIADIKSKYDEERSLREAAEQKVTRLTEELNKEATVIQDLKTELLQRPGIEDVAVLKKELVQVQTLMDNMTLERERESEKLKDECKKLQSQYASSEATISQLRSELAKGPQEVAVYVQELQKLKSSVNELTQKNQTLTENLLKKEQDYTKLEEKHNEESVSKKNIQATLHQKDLDCQQLQSRLSASETSLHRIHVELSEKGEATQKLKEELSEVETKYQHLKAEFKQLQQQREEKEQHGLQLQSEINQLHSKLLETERQLGEAHGRLKEQRQLSSEKLMDKEQQVADLQLKLSRLEEQLKEKVTNSTELQHQLDKTKQQHQEQQALQQSTTAKLREAQNDLEQVLRQIGDKDQKIQNLEALLQKSKENISLLEKEREDLYAKIQAGEGETAVLNQLQEKNHTLQEQVTQLTEKLKNQSESHKQAQENLHDQVQEQKAHLRAAQDRVLSLETSVNELNSQLNESKEKVSQLDIQIKAKTELLLSAEAAKTAQRADLQNHLDTAQNALQDKQQELNKITTQLDQVTAKLQDKQEHCSQLESHLKEYKEKYLSLEQKTEELEGQIKKLEADSLEVKASKEQALQDLQQQRQLNTDLELRATELSKQLEMEKEIVSSTRLDLQKKSEALESIKQKLTKQEEEKKILKQDFETLSQETKIQHEELNNRIQTTVTELQKVKMEKEALMTELSTVKDKLSKVSDSLKNSKSEFEKENQKGKAAILDLEKTCKELKHQLQVQMENTLKEQKELKKSLEKEKEASHQLKLELNSMQEQLIQAQNTLKQNEKEEQQLQGNINELKQSSEQKKKQIEALQGELKIAVLQKTELENKLQQQLTQAAQELAAEKEKISVLQNNYEKSQETFKQLQSDFYGRESELLATRQDLKSVEEKLSLAQEDLISNRNQIGNQNKLIQELKTAKATLEQDSAKKEQQLQERCKALQDIQKEKSLKEKELVNEKSKLAEIEEIKCRQEKEITKLNEELKSHKLESIKEITNLKDAKQLLIQQKLELQGKADSLKAAVEQEKRNQQILKDQVKKEEEELKKEFIEKEAKLHSEIKEKEVGMKKHEENEAKLTMQITALNENLGTVKKEWQSSQRRVSELEKQTDDLRGEIAVLEATVQNNQDERRALLERCLKGEGEIEKLQTKVLELQRKLDNTTAAVQELGRENQSLQIKHTQALNRKWAEDNEVQNCMACGKGFSVTVRRHHCRQCGNIFCAECSAKNALTPSSKKPVRVCDACFNDLQG [EEA1]”, for which the “solubility in G1/S (log2)” value in data set [1] is 0.678. Further, the “solubility change mitosis (log2)” value in data set [2] came out at 0.0149. The melting temperature in data set [3] (cell cycle stage: G1/S) amounted to 57.3 °C; in data set [3] (cell cycle stage: mitosis), 58 °C. In addition, the thermal stability score in data set [4] (setting [5]) is -3.01; in data set [4] (cell cycle stage: mitosis), -4.2.

Consider “MAAVDSFYLLYREIARSCNCYMEALALVGAWYTARKSITVICDFYSLIRLHFIPRLGSRADLIKQYGRWAVVSGATDGIGKAYAEELASRGLNIILISRNEEKLQVVAKDIADTYKVETDIIVADFSSGREIYLPIREALKDKDVGILVNNVGVFYPYPQYFTQLSEDKLWDIINVNIAAASLMVHVVLPGMVERKKGAIVTISSGSCCKPTPQLAAFSASKAYLDHFSRALQYEYASKGIFVQSLIPFYVATSMTAPSNFLHRCSWLVPSPKVYAHHAVSTLGISKRTTGYWSHSIQFLFAQYMPEWLWVWGANILNRSLRKEALSCTA [HSDL1]”, for which the “solubility in G1/S (log2)” value in data set [1] was -0.127. For the same substance, in data set [2], the “solubility change mitosis (log2)” value was -0.155. Also, the melting temperature was found to be 57.5 °C in data set [3] (cell cycle stage: G1/S) and 54.3 °C in data set [3] (cell cycle stage: mitosis). In addition, the thermal stability score in data set [4] (setting [5]) was -1.62; in data set [4] (cell cycle stage: mitosis) it was -2.08.

Take DOCK11: the “solubility in G1/S (log2)” value in data set [1] was -0.234. In data set [2], the “solubility change mitosis (log2)” value was -0.145. The melting temperature in data set [3] (cell cycle stage: G1/S) is 51.4 °C; in data set [3] (cell cycle stage: mitosis), 51.5 °C. The thermal stability score in data set [4] (setting [5]) is 0.076; in data set [4] (cell cycle stage: mitosis), -0.52.

“MGRLDGKVIILTAAAQGIGQAAALAFAREGAKVIATDINESKLQELEKYPGIQTRVLDVTKKKQIDQFANEVERLDVLFNVAGFVHHGTVLDCEEKDWDFSMNLNVRSMYLMIKAFLPKMLAQKSGNIINMSSVASSVKGVVNRCVYSTTKAAVIGLTKSVAADFIQQGIRCNCVCPGTVDTPSLQERIQARGNPEEARNDFLKRQKTGRFATAEEIAMLCVYLASDESAYVTGNPVIIDGGWSL [BDH2]”: the “solubility in G1/S (log2)” value in data set [1] was 0.0418. Further, the “solubility change mitosis (log2)” value in data set [2] is -0.101. Besides, the melting temperature in data set [3] (cell cycle stage: G1/S) came out at 51.4 °C; in data set [3] (cell cycle stage: mitosis), 51.3 °C. Besides, the thermal stability score in data set [4] (setting [5]) is 0.0249; in data set [4] (cell cycle stage: mitosis) it was -0.29.
